Results on three molecules are retold here after patent publication US5942405A, “Therapeutic and screening methods using C3a receptor and C3a” (priority 1997, dated 1999).

The target in the test is T1, C3a Receptor (Homo sapiens, UniProt Q16581).
T1 sequence (Q16581 1-482 F151C): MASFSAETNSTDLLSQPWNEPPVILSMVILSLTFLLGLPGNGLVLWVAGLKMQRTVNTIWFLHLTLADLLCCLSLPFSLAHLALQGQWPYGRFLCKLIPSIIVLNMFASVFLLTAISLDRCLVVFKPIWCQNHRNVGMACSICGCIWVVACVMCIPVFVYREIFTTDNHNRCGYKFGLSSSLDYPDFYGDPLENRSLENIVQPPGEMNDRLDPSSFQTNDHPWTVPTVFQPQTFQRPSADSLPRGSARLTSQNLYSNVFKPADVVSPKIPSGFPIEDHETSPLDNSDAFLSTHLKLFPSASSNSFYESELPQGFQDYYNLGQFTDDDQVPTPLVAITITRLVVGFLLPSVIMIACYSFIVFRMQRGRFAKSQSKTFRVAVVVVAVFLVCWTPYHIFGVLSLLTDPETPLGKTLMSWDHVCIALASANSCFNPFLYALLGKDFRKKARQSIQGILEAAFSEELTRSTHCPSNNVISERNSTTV
The experiment in a line: Electrophysiological response (Ca2+ mediated chloride currents, two electrode voltage clamp) of Xenopus oocytes injected with C3a Receptor cRNA. The format is cell-based. On the set-up: cDNA encoding a complete orphan GPCR of 482 amino acids; expressed in transfected cells; host or cells: Xenopus laevis oocytes microinjected with cRNA, with or without U937 total RNA. To be noted: for electrophysiological response of oocytes expressing C3a Receptor: oocytes co-injected with C3a Receptor cRNA (10 ng) and U937 RNA (25 ng), ligands 10 nM; for electrophysiological response of oocytes injected with C3a Receptor cRNA or U937 RNA alone: 10 nM ligand. As to the method:
(A) Electrophysiological response of Xenopus oocytes injected with cRNA for C3a Receptor (10 ng), total U937 RNA (25 ng), or a mixture of C3a Receptor (10 ng) and U937 RNA (25 ng) to 10 nM rC5a, 10 nM C3a analogue peptide, 10 nM platelet activating factor (PAF), 10 nM fMetLeuPhe. Inset, represents typical response of oocytes co-injected with C3a Receptor cRNA+U937 RNA to 10 nM C3a. (B) Electrophysiological response of oocytes injected with C5a-R cRNA (10 ng), U937 RNA (25 ng) or a mixture of C5a-R and U937 RNA, to 10 nM rC5a or 10 nM C3a analogue peptide. […] Calcium mobilization by Fura 2 loaded cells expressing C5a receptor (FIGS. 4A & 4C) or C3a Receptor (FIGS. 4B & 4D) in response to rC5a (10 nM, FIG. 4A or 100 nM, FIG. 4B) or C3a analogue peptide (1 uM, FIGS. 4C & 4D).
Capped cRNA transcripts were generated from linearized C3a Receptor and C5a-R plasmid DNA as previously described (Kumar, C. S., et al (1989) J. Biol. Chem. 264, 17939-17946) and suspended in sterile water at a concentration of 0.2 μg/μl. Ovarian lobes were surgically removed from adult female Xenopus laevis frogs and defolliculated Stage V oocytes were harvested by manual dissection (Smith, L. D., et al (1991) Methods in Cell Biology, 36, 45-54. Edited by B. K. Kay and H. B. Peng, Academic Press Inc., New York.). Oocytes were microinjected with C3a Receptor or C5a-R cRNA transcripts (10 ng/oocyte) with or without U937 total RNA (25 ng/oocyte) in a 50 nl volume using a Drummond microinjection apparatus and maintained in modified Barth's saline (Power, C. A., et al (1995) J. Biol. Chem., 270,19495-19500 ) at 18° C. Electrophysiological recordings from an average of 10 oocytes were made 48 h later at room temperature using the two electrode voltage clamp (Warner Instruments) technique. Membrane potentials were routinely clamped at -60 mV. Results represent average response determined in three separate experiments.
The chemotactic receptors for C5a and the fMLP-R have previously been functionally expressed in Xenopus laevis oocytes (Kroll, B., et al (1991) FEBS Lett. 291, 208-210; Murphy, P. M. & McDermott, D. (1991) J Biol. Chem. 266, 12560-12567; Murphy, P. M., Gallin, E. K., and Tiffany, H. L. (1990) J Immunol. 145, 2227-2234; Schultz, P., et al (1992) Cellular Signalling 4, 153-161) and, unlike all other GPCRs tested in this system, injection of cRNA for the cloned chemotactic receptors alone is insufficient to stimulate signal transduction in response to ligand binding (Kroll, B., et al (1991) FEBS Lett. 291, 208-210; Murphy, P. M. & McDermott, D. (1991) J Biol. Chem. 266, 12560-12567). Functional expression of both of these chemotactic receptors, as monitored by induction of Ca^2+ mediated chloride currents, requires the co-injection of a complimentary human factor which can be supplied by total RNA from myeloid or liver cells (Kroll, B., et al (1991) FEBS Lett. 291, 208-210; Murphy, P. M. & McDermott, D. (1991) J Biol. Chem. 266, 12560-12567). The co-factor is required for receptor-mediated signal transduction but not for expression of the C5a-R or fMLF-R on the surface of the oocytes (Murphy, P. M., et al (1990) J Immunol. 145, 2227-2234). […] Xenopus oocytes were used to functionally characterize C3a Receptor. […] Like the C5a-R and the fMLF-R, the response was dependent on the co-injection of a cofactor present in total HL-60 or U937 RNA. […] (FIG. 3B). Both the C5a-R as well as C3a Receptor elicited in oocytes a promiscuous response to the two anaphylatoxins.
A general note: Two-electrode voltage clamp holds a large cell at a set potential and records current.

Consider “C3a: C3a was purchased from Advanced Research Technologies, San Diego; anaphylatoxin; radioiodinated for binding”, for which the “electrophysiological response of oocytes expressing C3a Receptor” value is listed as “respond”. The “electrophysiological response of oocytes expressing C3a Receptor” value (listed as native ligand) is given as “elicited similar responses”.

In the case of “WWGKKYRASKLGLAR [C3a analogue synthetic peptide, reference compound]”, the “electrophysiological response of oocytes injected with C3a Receptor cRNA or U937 RNA alone” value is reported as “did not elicit any response” and the “electrophysiological response of oocytes expressing C3a Receptor” value was “respond”. Moreover, the “electrophysiological response of oocytes expressing C3a Receptor” value (listed as C3a carboxy-terminal analog synthetic peptide) was “elicited an electrophysiological response”.

B1: rC5a: Human rC5a was expressed in E. coli and purified to homogeneity (protein, UniProt P01031 678-751, looked up)
C5a anaphylatoxin: TLQKKIEEIAAKYKHSVVKKCCYDGACVNNDETCEQRAARISLGPRCIKAFTECCVVASQLRANISHKDMQLGR
modifications: C5a anaphylatoxin recombinant, E. coli
notes: Human rC5a was expressed in E. coli and purified to homogeneity
On to B1, for which the “electrophysiological response of oocytes injected with C3a Receptor cRNA or U937 RNA alone” value is listed as “did not elicit any response”. In addition, for the setting “listed as C5a”, the “electrophysiological response of oocytes expressing C3a Receptor” value is reported as “respond”.
